Laboratory results taken from patent US20230295310A1 (ABCELLERA BIOLOGICS, published 2023).
Positions count from the first letter of the chain named. One block for each binder: values may come before it.

Key:
[1] = biological target: T1, cynomolgus monkey CD3 expressed on primary T cells (cynomolgus monkey, UniProt Q95LI5 22-198; Q95LI8 22-171; Q95LI7 23-181); assay: flow cytometry, 25 nM, cyno primary T cells
T1 construct: whole, on cells; CD3 complex on purified cynomolgus monkey T cells; also called cyno CD3
T1 sequence (Q95LI5 22-198, chain 1 of 3): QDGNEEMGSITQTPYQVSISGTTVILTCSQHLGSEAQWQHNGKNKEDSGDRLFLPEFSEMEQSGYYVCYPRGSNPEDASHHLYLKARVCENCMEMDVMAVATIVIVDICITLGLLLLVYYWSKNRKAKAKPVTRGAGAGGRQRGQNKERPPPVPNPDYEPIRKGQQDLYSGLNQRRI
T1 sequence (Q95LI8 22-171, chain 2 of 3): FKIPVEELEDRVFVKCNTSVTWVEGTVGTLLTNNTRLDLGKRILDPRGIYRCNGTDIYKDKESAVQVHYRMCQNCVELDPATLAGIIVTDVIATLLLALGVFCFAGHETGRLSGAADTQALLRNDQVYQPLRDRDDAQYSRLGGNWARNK
T1 sequence (Q95LI7 23-181, chain 3 of 3): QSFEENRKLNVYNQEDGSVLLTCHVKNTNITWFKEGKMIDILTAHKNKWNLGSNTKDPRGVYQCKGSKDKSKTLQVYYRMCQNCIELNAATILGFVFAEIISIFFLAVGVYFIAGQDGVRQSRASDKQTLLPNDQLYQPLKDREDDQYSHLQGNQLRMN
How it was run: (§1)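 Antibodies at 25 nM in PBS + 2% FBS were incubated with CD3-expressing cells for 30 min at 4 °C and read by flow cytometry. Median fluorescence intensity was normalized to isotype control as fold over isotype; ≥10 counted as binding.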

[2] = biological target: T2, human CD3 expressed on cells (human, UniProt P07766 23-207; P04234 22-171; P09693 23-182); assay: flow cytometry, 25 nM
T2 construct: whole, on cells; CD3 complex on Jurkat cells and on human primary T cells
T2 sequence (P07766 23-207, chain 1 of 3): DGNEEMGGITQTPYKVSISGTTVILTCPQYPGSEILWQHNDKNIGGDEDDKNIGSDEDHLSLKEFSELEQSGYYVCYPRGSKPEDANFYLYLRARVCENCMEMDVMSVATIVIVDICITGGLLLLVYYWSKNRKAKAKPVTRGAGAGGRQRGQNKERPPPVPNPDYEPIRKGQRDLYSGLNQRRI
T2 sequence (P04234 22-171, chain 2 of 3): as the sequence (Q95LI8 22-171, chain 2 of 3) above, with V5I, K15N, V20I, T32S, N33D, N34I, A64T, N74S, L83V, R141H counted along it
T2 sequence (P09693 23-182, chain 3 of 3): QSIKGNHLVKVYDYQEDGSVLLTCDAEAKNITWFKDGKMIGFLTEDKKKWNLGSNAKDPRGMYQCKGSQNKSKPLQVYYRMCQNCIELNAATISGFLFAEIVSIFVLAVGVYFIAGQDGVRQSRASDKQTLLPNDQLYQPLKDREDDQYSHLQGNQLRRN
How it was run: as §1

B1: mAb 141 (antibody, V domains shown)
VH: QVQLVQSGAEVKKPGASVKVSCKASGYTFTSYYIHWVRQAPGQGLDWMGIINPSGGITGYAQKLQGRVTMTRDTSTTTVYMELSSLRSDDTAVYYCARGVRGNYYYYYMDVWGKGTTVTVSS
VL: EIVLTQSPDFQSVTPKEKVTITCRASQSIGSKLHWYQQKPDQSPKLLIKYASQSFSGVPSRFSGSGSGTDFNLTINSLEAEDAATFYCHQSSGLPYTFGQGTKLEIK
binding result [1]: no binding (tested: FOI >=10 = positive)
Human primary T Cell Binding (FOI) [2]: 310 FOI
Jurkat Cell Binding (FOI) [2]: 183 FOI

B2: mAb 145 (antibody, V domains shown)
VH: B1 VH with S31N, L64F
VL: B1 VL with Y50F, A80P
binding result [1]: no binding (tested: FOI >=10 = positive)
Human primary T Cell Binding (FOI) [2]: 217 FOI
Jurkat Cell Binding (FOI) [2]: 191 FOI

B5: mAb 127 (antibody, V domains shown)
VH: EVQLVESGGGLVKTGGSHRLSCVASGFSFKKAWMNWVRQAPGKGLEWVGRIKRNSDGGTTDYAAPVKGRFILSRDDSKNTLYLQMNSLKTEDTAVYYCTTLDSSSWYVGYYYMDVWGKGTTVTVSS
VL: DIQMTQSPSSVSASVGDRVTITCRASQDINNWLAWYQQKPGKAPKILIYTASNLQSGVPSRFSGSGSGTDFTLTISTLQPEDFATYFCQQAHGLPITFGQGTRLEIK
binding result [1]: no binding (tested: FOI >=10 = positive)
Human primary T Cell Binding (FOI) [2]: 172 FOI
Jurkat Cell Binding (FOI) [2]: 155 FOI

B6: mAb 129 (antibody, V domains shown)
VH: B5 VH with G10D, H18L, S55T, T59A, G68D, I71T
VL: DIHMTQSPSSVSASLGDRVTFTCRASQDINNWLAWYQQKPGKAPRLLIYTASSLQSGVPSRFSGSGSGTDFTLTISSLQPDDFATYYCQQAHSLPITFGQGTRLGIE
binding result [1]: no binding (tested: FOI >=10 = positive)
Human primary T Cell Binding (FOI) [2]: 169 FOI
Jurkat Cell Binding (FOI) [2]: 157 FOI

B7: mAb 166 (antibody, V domains shown)
VH: B5 VH with H18L, K43R, S55T, I71T, T80M, W106L
VL: B5 VL with I46L, N53S, T77S, G93S, K107T
binding result [1]: no binding (tested: FOI >=10 = positive)
Human primary T Cell Binding (FOI) [2]: 266 FOI
Jurkat Cell Binding (FOI) [2]: 159 FOI

B9: mAb 137 (antibody, V domains shown)
VH: QVQLVESGGGVVQPGRSLRLSCAASGFTFSTYGMHWVRQAPGKGLEWVAVIWYDGSHKYYADSVKGRFTISRDNSKKTLYLQMNSLRAEDTGIYYCARTGISGNMSYFYFDHWGQGILVTVSS
VL: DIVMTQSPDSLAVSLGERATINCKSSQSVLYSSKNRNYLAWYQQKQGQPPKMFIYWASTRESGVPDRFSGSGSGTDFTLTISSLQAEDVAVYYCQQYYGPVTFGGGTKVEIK
binding result [1]: no binding (tested: FOI >=10 = positive)
Human primary T Cell Binding (FOI) [2]: 158 FOI
Jurkat Cell Binding (FOI) [2]: 151 FOI

B10: mAb 128 (antibody, V domains shown)
VH: EVQLVESGGGLVQPGRSLRLSCAASGFTFDDYTMHWVRQAPGKGLEWVSGISWNSGSIGYADSVKGRFTISRDNAKNSLYLQMNSLRAEDTALYYCAKDSSGYGYYYYYSMDVWGKGTTVTVSS
VL: EIVMTQSPATLSVSPGERATLSCRASQSVSSNLAWYQQKPGQAPRLLIYGASTRATGIPARFSGSGSGTEFTLTISSLQSEDFAVYYCQLYYNWPHFGQGTRLAIK
binding result [1]: no binding (tested: FOI >=10 = positive)
Human primary T Cell Binding (FOI) [2]: 101 FOI
Jurkat Cell Binding (FOI) [2]: 97.1 FOI

B12: mAb 159 (antibody, V domains shown)
VH: B10 VH with D30N, D31G, A40V, I58V, Y80F, Y105H, S110Y
VL: B10 VL with S30R, S31N, V85L, Y92N, A104E
binding result [1]: no binding (tested: FOI >=10 = positive)
Human primary T Cell Binding (FOI) [2]: 171 FOI
Jurkat Cell Binding (FOI) [2]: 125 FOI

B13: mAb 126 (antibody, V domains shown)
VH: B10 VH with D30N, A40V, G59D, S110Y
VL: B10 VL with S31I, Y92H, A104E
binding result [1]: no binding (tested: FOI >=10 = positive)
Human primary T Cell Binding (FOI) [2]: 97.6 FOI
Jurkat Cell Binding (FOI) [2]: 97 FOI

B15: mAb 118 (antibody, V domains shown)
VH: B10 VH with A97S, Y107L, Y108N, M111L
VL: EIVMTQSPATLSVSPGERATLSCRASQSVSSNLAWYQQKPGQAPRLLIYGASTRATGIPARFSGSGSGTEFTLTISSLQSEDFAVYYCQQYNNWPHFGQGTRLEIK
binding result [1]: no binding (tested: FOI >=10 = positive)
Human primary T Cell Binding (FOI) [2]: 84.7 FOI
Jurkat Cell Binding (FOI) [2]: 83.8 FOI

B16: mAb 162 (antibody, V domains shown)
VH: B10 VH with D31N, T33A, Q82E, M83L, Y108N, S110Y
VL: B10 VL with S30R, R61K, L90Y, A104E
binding result [1]: no binding (tested: FOI >=10 = positive)
Human primary T Cell Binding (FOI) [2]: 160 FOI
Jurkat Cell Binding (FOI) [2]: 111 FOI

B18: mAb 142 (antibody, V domains shown)
VH: QVQLVESGGGVVQPGRSLRLSCAASGFTFSSYGMHWVRQAPGKGLEWVAVIWYDGSNKYYADSVKGRFTISRDNSKNTLYLQMNSLRAEDTAVYYCARTGITGTTAYFYFDSWGQGTLVTVSS
VL: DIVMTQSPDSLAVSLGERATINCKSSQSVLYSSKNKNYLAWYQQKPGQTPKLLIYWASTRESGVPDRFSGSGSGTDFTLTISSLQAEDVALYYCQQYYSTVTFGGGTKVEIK
binding result [1]: no binding (tested: FOI >=10 = positive)
Human primary T Cell Binding (FOI) [2]: 59.6 FOI
Jurkat Cell Binding (FOI) [2]: 65.5 FOI

Now from value to binder:

binding result [1]: no binding (tested: FOI >=10 = positive)
Human primary T Cell Binding (FOI) [2]: 241 FOI
Jurkat Cell Binding (FOI) [2]: 154 FOI
B3: mAb 165 (antibody, V domains shown)
VH: B5 VH with H18L, S55T, T60A, I71T, N79R, W106R
VL: B5 VL with T20I, A43V, I46L, N53S, S76G, T77S, F87Y, G93S

binding result [1]: no binding (tested: FOI >=10 = positive)
Human primary T Cell Binding (FOI) [2]: 165 FOI
Jurkat Cell Binding (FOI) [2]: 155 FOI
B4: mAb 130 (antibody, V domains shown)
VH: B5 VH with H18L, T59A, G68D, I71T
VL: B6 VL with K39R, R45K, D81E, E107K

binding result [1]: no binding (tested: FOI >=10 = positive)
Human primary T Cell Binding (FOI) [2]: 264 FOI
Jurkat Cell Binding (FOI) [2]: 173 FOI
B8: mAb 169 (antibody, V domains shown)
VH: B5 VH with H18L, S55T, T60A, I71T, N79K, Y82F, W106Y
VL: B5 VL with T20I, I46L, N53S, T72I, S76G, T77S, F87Y, G93S

binding result [1]: no binding (tested: FOI >=10 = positive)
Human primary T Cell Binding (FOI) [2]: 95.4 FOI
Jurkat Cell Binding (FOI) [2]: 90.4 FOI
B11: mAb 119 (antibody, V domains shown)
VH: B10 VH with A97S, Y107L, Y108N, M111L
VL: EIVMTQSPATLSVSPGERATLSCRASQSVSNLAWYQQKPGQAPRLLIYGASTRATGIPARFSGSGSGTEFTLTISSLQSEDFAVYYCQQYNNWPHFGQGTRLQIK

binding result [1]: no binding (tested: FOI >=10 = positive)
Human primary T Cell Binding (FOI) [2]: 169 FOI
Jurkat Cell Binding (FOI) [2]: 115 FOI
B14: mAb 160 (antibody, V domains shown)
VH: B10 VH with A24V, D30N, A40V, Y95F, Y105H, S110Y, K116R
VL: B10 VL with S30R, S31K, Y92N, A104E

binding result [1]: no binding (tested: FOI >=10 = positive)
Human primary T Cell Binding (FOI) [2]: 86 FOI
Jurkat Cell Binding (FOI) [2]: 90.9 FOI
B17: mAb 136 (antibody, V domains shown)
VH: B18 VH with S31I, Y53H, T105K, S112Y
VL: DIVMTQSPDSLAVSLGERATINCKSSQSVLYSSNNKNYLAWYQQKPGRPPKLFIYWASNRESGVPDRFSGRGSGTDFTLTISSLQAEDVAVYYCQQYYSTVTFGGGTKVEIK
